First the molecules themselves.
B1: FasLigand (monomer) (ligand, UniProt P48023 103-281, looked up)
chain: QLFHLQKELAELRESTSQMHTASSLEKQIGHPSPPPEKKELRKVAHLTGKSNSRSMPLEWEDTYGIVLLSGVKYKKGGLVINETGLYFVYSKVYFRGQSCNNLPLSHKVYMRNSKYPQDLVMMEGKMMSYCTTGQMWARSSYLGAVFNLTSADHLYVNVSELSLVNFEESQTFFGLYKL
notes: Immobilized on a CM5 chip by amine coupling and printed as 'FasLigand (monomer)'; also called Fas Ligand (Kamiya Biomedical Company)

In assay [1] the target is T1, FLINT (FAS Ligand Inhibitory Protein), mature human FLINT (human, UniProt O95407 30-300).
T1 construct: also called mature FLINT
T1 sequence: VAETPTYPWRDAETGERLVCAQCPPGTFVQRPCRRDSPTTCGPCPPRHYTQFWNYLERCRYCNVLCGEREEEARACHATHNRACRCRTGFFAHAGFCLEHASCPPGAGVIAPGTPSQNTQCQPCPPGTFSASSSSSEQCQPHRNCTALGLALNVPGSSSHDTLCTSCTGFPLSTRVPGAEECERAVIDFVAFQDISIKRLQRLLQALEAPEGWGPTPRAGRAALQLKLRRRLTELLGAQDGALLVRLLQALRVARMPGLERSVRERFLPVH
Kind of assay: SPR (Biacore 2000), FasLigand immobilized on CM5 chip, FLINT in solution. On the procedure:
(§1) FasL or the FLINT analog are immobilized through their primary amine group on lysine residues onto carboxymethyldextran polymer attached to a gold surface (Sensor Chip CM5). Immobilization is carried out using the amine coupling kit (Biacore) according to the manufacturer's protocol. Briefly, 100 µl of either FasL or FLINT analog solutions (10–25 µg/ml in sodium acetate buffer 20 mM, pH 5.0) is loaded onto an activated CM5 chip. After coupling, excess reactive groups on the surface are deactivated with 1M ethanolamine hydrochloride pH 8.5. The chip is then washed with a sodium acetate buffer 20 mM, pH 5.0 to remove non-covalently bound material.
(§2) To analyze the interaction between FasL and FLINT analogs, solutions containing the FLINT analogs are passed over the chip with PasL immobilized thereon. The amount of the FLINT analog associated with FasL is determined by measuring the surface plasmon resonance signal (in responce units, RU). Typically, FLINT analog solutions at different concentrations in HBS-ET buffer are loaded on the sensor chip for 10 minutes at a flow rate of 5 µl/min. […]
(§3) The data is evaluated and binding parameters determined using BIA evaluation 3.0.2 software (Biacore). The Kd for the interaction between FLINT and FasL and between FasL and Fas was determined using the protocols described above.
(In general: Surface plasmon resonance follows binding to a sensor surface in real time, without labels.)

The target of assay [2] is B1. Kind of assay: SPR (Biacore 2000), FasLigand immobilized on CM5 chip, Fas in solution. The protocol: as §1, §2, §3

From patent US6835814 (Eli Lilly, dated 2004) come the findings set out here.

As usually defined, the Kd is the equilibrium constant for the complex coming apart. A high value points to a looser complex. For B1, the Kd in assay [1] is 113 nM.

B2: Fas/Fc chimera (R&D Systems) (Fc fusion, UniProt P25445 26-173, looked up)
chain: QVTDINSKGLELRKTVTTVETQNLEGLHHDGQFCHKPCPPGERKARDCTVNGDEPDCVPCQEGKEYTDKAHFSSKCRRCRLCDEGHGLEVEINCTRTQNTKCRCKPNFFCNSTVCEHCDPCTKCEHGIIKECTLTSNTKCKEEGSRSN
notes: The result line prints only 'Fas'; also called Pas/Fc chimera; Fc part of the bought chimera not given; not described
The molecule B2 showed a Kd in assay [2] of 162 nM.
